Results reported in patent US20240110213A1 (Chr. Hansen HMO GmbH, priority 2020, published 2024).
Read-outs that look alike come from different tables or passages of the source.

Assays:
E. coli wild-type LacY = E. coli wild-type LacY (Escherichia coli, UniProt P02920); conditions: cited from earlier work
[1] = test system: E. coli strains expressing different variants of the E. coli lactose permease LacY; assay type: cell-based
Description: Bacterial cell pellets from these cultures were used to inoculate 100 ml minimal medium in shaking flasks. These cultures were incubated for 16 hours at 37° C. in a shaker. The bacterial cells were then sedimented by centrifugation and the resulting pellets were washed twice with fresh cold (4° C.) culture medium and finally resuspended in cold medium. The optical density (OD600) of the cell suspension was set to 5 with cold medium, and the cell suspension is were stored on ice until use for the internalization assay.
Three minutes prior to the transport assay, the bacterial cells were placed in a 37° C. thermo block. […] […] The bacterial cells on the filter were washed twice with 100 mM LiCl and the filter was used subsequently to quantify remaining radioactivity in a Tricarb 2800 scintillation counter (Perkin Elmar, Waltham, MA). To this end, the filters were transferred into scintillation tubes and overlaid with 6 ml Rotiszint eco plus (Roth, Karlsruhe, DE).
In a second set of experiments, the transport assays were started by addition of a mixture of ^14C-labelled lactose and non-radiolabeled lactose to a final concentration of 5 mM lactose and 550,000 dpm. The bacterial cells were collected by filtration after 60 seconds incubation, and washed twice with 3 ml medium containing 5 mM unlabelled lactose.

[2] = test system: LNT-producing E. coli strain; test: Lacto-N-tetraose production in lab scale fermentation (3 litre); assay type: cell-based
Description: The identity of lacto-N-tetraose being produced was determined by multiple reaction monitoring (MRM) using an LC triple-quadrupole MS detection system (Shimadzu LCMS-8050). Precursor ions were selected and analyzed in quadrupole 1, followed by collision-induced fragmentation (CID) with argon and selection of fragment ions in quadrupole 3.
The oligosaccharide LNT in particle-free culture supernatants or cytoplasmic fractions were separated by high performance liquid chromatography (HPLC) using a Waters XBridge Amide HPLC column (3.5 μm, 2.1 […] 50 mm) for both neutral or acidic sugars. Neutral sugars were eluted with isocratic flow of H2O with 0.1% (v/v) ammonium hydroxide. The HPLC system encompasses a Shimadzu Nexera X2 SIL-30ACMP autosampler run at 8° C., a Shimadzu LC-20AD pump, and a Shimadzu CTO-20AC column oven running at 35° C. for elution of neutral sugars and was adjusted to 50° C. for elution of acidic sugars. For the analysis of LNT 1 μl was injected into the instrument. Flow rate was set 0.3 mL/min corresponding to a run time of 5 min. LNT was analyzed in negative ion mode. The mass spectrometer was operated at unit resolution. Collision energy, Q1 and Q3 pre-bias were optimized for each analyte. Quantification methods were established using commercially available standards (Carbosynth and Elicityl).
The impact of reduced lactose import and reduced lactose sensitivity by a bacterial strain on its oligosaccharide production was analyzed in a small-scale fermentation.
In a first set of fermentations each of the bacterial strains was inoculated from a preculture in a fermentation broth containing 20 mM lactose.
In these cultures, the lactose feed (2.5 ml/L/h) was started at the end of the batch phase.

lactose permease genes = test: Expression analysis of lactose permease genes by qPCR; assay type: cell-based, E. coli BL21(DE3); conditions: normalized to gapA, compared with parental strain, FIG. 3
Description: A metabolically engineering derivative of E. coli BL21(DE3) which was capable of producing lacto-N-tetraose (LNT) was obtained by genetic engineering.
For expression analyses individual clones obtained from above-referenced mutagenesis approach were inoculated in 25 ml mineral salts medium in shaking flasks. Expression analysis of each clone was performed in 3 replicates. The bacterial cells were grown at 30° C. and a relative humidity of 80% with constant agitation at 120 rpm. After 20 h of culturing, the optical densities of these precultures were determined and the main cultures were seeded to an OD600 of 0.05 in 25 ml of mineral salts medium. The main cultures were cultured for 20 h under the same conditions as the pre-cultures were cultured. Then the bacterial cells were harvested by centrifugation and used for extraction of RNA and subsequent expression analysis by qPCR. The relative quantification of expression levels was performed using the comparative Δ cycle threshold method, the calculated relative expression values were normalized to gapA and compared with the expression level in the parental strain used as control.

[3] = test system: bacterial LNT production strains; test: Lactose sensitivity of bacterial LNT production strains (OD600 in shaking flasks); assay type: cell-based, E. coli BL21(DE3); conditions: 20 hours after addition, compared to growth in the absence of lactose
Description: The culture medium used to grow the cells for the production of the desired oligosaccharide contained: 3 g/L KH2PO4, 12 g/L K2HPO4, 5 g/L (NH4)SO4, 0.3 g/L citric acid, 0.1 g/L NaCl, 2 g/L MgSO4×7 H2O and 0.015 g/L CaCl2×6 H2O, supplemented with 1 ml/L trace element solution (54.4 g/L ammonium ferric citrate, 9.8 g/L MnCl2×4 H2O, 1.6 g/L […], 1 g/L CuCl2×2 H2O, 1.9 g/L MnCl2×4 H2O, 1.1 g/L Na2MoO4×2 H2O, 1.5 g/L Na2SeO3, 1.5 g/L NiSO4×6 H2O). The pH of the medium was adjusted to 7.0. Lactose was added to the medium in a concentration of 10 mM to 25 mM for synthesis of the desired oligosaccharide by the cells and for testing the cells' sensitivity to lactose.
The bacterial cells were grown at 30° C. and 80% relative humidity with constant agitation at 120 rpm. After 20 h culturing, the optical density of the pre-cultures was determined and the main cultures were inoculated to an OD600 of 0.3 in 25 ml of mineral salts medium. Lactose was added to the culture medium two hours after inoculation of the cultures to final concentrations of 10 or 25 mM. The optical densities (OD600) of the main cultures were determined 20 hours after addition of lactose.

Chain of E. coli wild-type LacY (P02920 whole entry): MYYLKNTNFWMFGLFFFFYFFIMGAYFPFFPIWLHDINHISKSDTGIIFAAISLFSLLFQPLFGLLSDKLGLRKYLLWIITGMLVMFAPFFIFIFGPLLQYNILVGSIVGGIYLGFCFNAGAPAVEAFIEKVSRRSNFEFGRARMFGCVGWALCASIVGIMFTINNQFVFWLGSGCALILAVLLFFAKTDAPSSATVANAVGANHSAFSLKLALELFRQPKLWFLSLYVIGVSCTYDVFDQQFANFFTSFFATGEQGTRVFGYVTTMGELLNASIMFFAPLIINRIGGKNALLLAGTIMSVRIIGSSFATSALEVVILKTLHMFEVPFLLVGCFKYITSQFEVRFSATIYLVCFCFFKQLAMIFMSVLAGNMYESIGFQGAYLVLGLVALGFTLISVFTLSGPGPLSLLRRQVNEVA

Molecule: OC[C@H]1O[C@@H](O[C@@H]2[C@@H](CO)OC(O)(CO)[C@H]2O)[C@H](O)[C@@H](O)[C@H]1O (mixture of isomers) [lactulose]
- Km (E. coli wild-type LacY): 240 µM

Molecule: CS[C@@H]1O[C@H](CO)[C@H](O)[C@H](O)[C@H]1O [TMG, methyl-1-thio-β,D-galactopyranoside, reference compound]
- Km (E. coli wild-type LacY): 540 µM

Molecule: O=C[C@H](O)[C@@H](O)[C@H](O[C@@H]1O[C@H](CO)[C@H](O)[C@H](O)[C@H]1O)[C@H](O)CO [lactose, β-D-galactopyranosyl-(1→4)-D-glucose]
- Km (E. coli wild-type LacY): 620 µM

Molecule: OC[C@H]1O[C@H](OCC2O[C@@H](O)[C@H](O)[C@@H](O)[C@@H]2O)[C@H](O)[C@@H](O)[C@H]1O (stereo partly shown) [melibiose]
- Km (E. coli wild-type LacY): 240 µM

B1: LacY(L293R): E. coli LacY variant with leucine at position 293 substituted with arginine (protein, UniProt P02920 1-417, looked up, variant L293R)
Lactose permease: MYYLKNTNFWMFGLFFFFYFFIMGAYFPFFPIWLHDINHISKSDTGIIFAAISLFSLLFQPLFGLLSDKLGLRKYLLWIITGMLVMFAPFFIFIFGPLLQYNILVGSIVGGIYLGFCFNAGAPAVEAFIEKVSRRSNFEFGRARMFGCVGWALCASIVGIMFTINNQFVFWLGSGCALILAVLLFFAKTDAPSSATVANAVGANHSAFSLKLALELFRQPKLWFLSLYVIGVSCTYDVFDQQFANFFTSFFATGEQGTRVFGYVTTMGELLNASIMFFAPLIINRIGGKNALRLAGTIMSVRIIGSSFATSALEVVILKTLHMFEVPFLLVGCFKYITSQFEVRFSATIYLVCFCFFKQLAMIFMSVLAGNMYESIGFQGAYLVLGLVALGFTLISVFTLSGPGPLSLLRRQVNEVA
- lactose internalization (radioactivity incorporated) ([1]; exogenous lactose 0.5 mM, 30 seconds, FIG. 5A): reduced but detectable
- lactose internalization (radioactivity incorporated) ([1]; exogenous lactose 5 mM, 60 seconds, FIG. 5B): reduced but detectable
- growth kinetics throughout the fermentation ([2]; LNT fermentation, FIG. 7): regular growth kinetics
- optical density reached in the culture ([2]; LNT fermentation, FIG. 7, compared to strain bearing LacY): higher
- setback in the OC600 and lactose-caused cell lysis ([2]; continuous lactose feed 3.2 ml/L/h, lactose level kept high): without causing any setback in the OC600 and without apparent lactose-caused cell lysis
- growth ([2]; fermentation broth containing 20 mM lactose at inoculation): did not display any problems in growth
- relative expression (lactose permease genes): at the same level
- growth (OD600) ([3]; 10 mM lactose): not reduced
- growth (OD600) ([3]; 25 mM lactose): not reduced
